Data: patent publication US20260275304A1, “METHODS AND COMPOSITIONS FOR GLYPHOSATE TOLERANCE IN PLANTS” (Monsanto Technology LLC, priority 2023, published 2026)

Columns and labels:
Type in all cases: in vivo, Zea mays
transgenic maize plants [1] = experiment: Glyphosate spray test on R0 transgenic maize plants; details: for Percent of sprayed plants showing glyphosate injury: 0.75 lb ae/acre POST at V3-V4, seven days after application; for plants injured by the glyphosate spray: injury observed 1 week following treatment
Description: Two of the six EPSPS variants had developing plants greater than twenty-five. The extra developing R0 plants from these two variants were utilized in a glyphosate spray test to determine the tolerance provided by the EPSPS variants to a typical post glyphosate application to young plants. The R0 plants were sprayed with glyphosate applied postemergence (POST) at 0.75 lb ae (acid equivalent)/acre (0.84 kg ae/ha) at the V3-V4 stage. Treated plants were evaluated for injury seven days after glyphosate application.

transgenic maize plants [2] = experiment: Greenhouse glyphosate spray test on hybrid (hemizygous) transgenic maize; details: for Average Injury At 1120 g/ha: Roundup PowerMax3, 1× field rate; for Average Injury At 1120 g/ha / Average Injury At 2240 g/ha: 18 days after treatment, scale of 0 to 100; for Average Injury At 2240 g/ha: Roundup PowerMax3, 2× field rate
Description: To further evaluate the performance of EPSPS variants for glyphosate tolerance, transgenic maize plants comprising a single copy of the transgene encoding the EPSPS variants TIPS-P126S-M217L-K296R or TIPS-P126S-K296R were grown to maturity. Homozygous transgenic plants were crossed with an inbred line to produce hybrid seeds.
Plants from the hybrid seeds (hemizygous for the transgenes) of two independent transformation events for each of the two variants were grown in the greenhouse for glyphosate spray test. Roundup® PowerMax3, a commercial formulation of glyphosate, was applied at the third leaf stage at two rates: 1120 gram/hectare (1× the field rate) and 2240 gram/hectare (2× the field rate). The controls included an untreated untransformed control without glyphosate treatment, an untransformed control sprayed with glyphosate, and a TIPS positive control both sprayed with glyphosate. Glyphosate herbicide injury (plant stunting, chlorosis, necrosis, malformation, and death) was assessed by visual inspection of the plants 18 days after herbicide treatment. Herbicide injury rate was presented on a scale of 0 to 100 with “0” being no visible crop injury and “100” being complete crop injury or death.

transgenic maize plants [3] = experiment: Maize transformation with glyphosate selection, plantlet recovery and quality checks; details: for Number of young plants passing quality control checks: in vivo; for Number of plantlets generated: under glyphosate selection, same amount of starting material
Excerpt: Maize was used as a model system to test the functionality of the EPSPS variants because of detailed previous characterization of glyphosate tolerance in maize and a suitable transgenic plant generation protocol that relies on glyphosate. Plant transformation vectors were generated in which the native maize EPSPS sequence was used, which includes the native gene promoter elements, the native introns and exons and the native 3′ untranslated region and introduced mutations that corresponded to each of the selected amino acid changes. The native sequence was used to mimic as closely as possible how the selected EPSPS variants would perform if the variants were introduced directly in the genome without the help of strong expression elements. The following variants were selected for testing in a transgenic maize system: TIPS (as a control); TIPS-P126S-M217L-K296R; TIPS-P126S-K296R; T102I-P126S-K296R (where only the T102I change is present); P106S-P126S-K296R (where only the P106S change is present); and P126S-K296R (where neither of the TIPS changes are present).
Transgenic maize plants that expressed each of the six EPSPS variants were generated to determine if the variants conferred glyphosate tolerance to plants. The full DNA sequence encoding TIPS EPSPS (SEQ ID NO:1) was cloned from maize genomic DNA. In this sequence, the promoter and 5′ UTR are nucleotides 1:2556; the chloroplast transit peptide sequence is nucleotides 2557:2742; EXON 1 is nucleotides 2743:2856; INTRON 1 is nucleotides 2857:3384; EXON 2 is nucleotides 3385:3626; INTRON 2 is nucleotides 3627:3725; EXON 3 is nucleotides 3726:3879; INTRON 3 is nucleotides 3880:4152; EXON 4 is nucleotides 4153:4367; INTRON 4 is nucleotides 4368:4877; EXON 5 is nucleotides 4878:4995; INTRON 5 is nucleotides 4996:5155; EXON 6 is nucleotides 5156:5366; INTRON 6 is nucleotides 5367:5446; EXON 7 is nucleotides 5447:5508; INTRON 7 is nucleotides 5509:5617; EXON 8 is nucleotides 5618:5836; and the 3′ UTR is nucleotides 5837:6368. Mutations were then introduced into the EPSPS coding sequence in order to produce each of the six EPSPS variants to be tested. These mutated full genomic DNA sequences were then each cloned as a single expression cassette into plant transformation vectors.
Agrobacterium tumefaciens-mediated plant transformation was performed using methods known in the art. Glyphosate selection was used to select for transgenic events containing the transgene of interest and further screened for only those EPSPS variants that provided effective glyphosate tolerance in a plant cell. While all six EPSPS variants began the transformation process with the same amount of starting maize cellular material, there were differences in the number of small plantlets recovered that were capable of being transplanted to greenhouse soil media (Table 4). Transgenic events were further analyzed to determine transgene copy number. Healthy events with single copy of the transgene of interest were grown in the greenhouse soil media. Only three of the six EPSPS variants had more than one plant surviving. Up to twenty-five of these developing R0 plants were transplanted to larger pots and allowed to grow to maturity for seed collection in the greenhouse.

Molecule	Percent of sprayed plants showing glyphosate injury (transgenic maize plants [1])	plants injured by the glyphosate spray (transgenic maize plants [1])	tolerance to glyphosate (transgenic maize plants [2]; 2× field rate)	Average Injury At 1120 g/ha (transgenic maize plants [2])	Average Injury At 2240 g/ha (transgenic maize plants [2])	Number of young plants passing quality control checks (transgenic maize plants [3])	Number of plantlets generated (transgenic maize plants [3])	tolerance to glyphosate (transgenic maize plants [2]; equivalent 1× field dose)
TIPS: Zea mays EPSPS double mutant T102I and P106S, SEQ ID NO:9; positive control (protein, Zea mays, positive control) AGAEEIVLQPIKEISGTVKLPGSKSLSNRILLLAALSEGTTVVDNLLNSEDVHYMLGALRTLGLSVEADKAAKRAVVVGCGGKFPVEDSKEEVQLFLGNAGIAMRSLTAAVTAAGGNATYVLDGVPRMRERPIGDLVVGLKQLGADVDCFLGTDCPPVRVNGIGGLPGGKVKLSGSISSQYLSALLMAAPLALGDVEIEIIDKLISIPYVEMTLRLMERFGVKAEHSDSWDRFYIKGGQKYKSPKNAYVEGDASSASYFLAGAAITGGTVTVEGCGTTSLQGDVKFAEVLEMMGAKVTWTETSVTVTGPPREPFGRKHLKAIDVNMNKMPDVAMTLAVVALFADGPTAIRDVASWRVKETERMVAIRTELTKLGASVEEGPDYCIITPPEKLNVTAIDTYDDHRMAMAFSLAACAEVPVAIRDPGCTRKTFPDYFDVLSTFVKN	30%	Three of the ten	minor injuries	0	1.25	35	192	–
TIPS-P126S-K296R: maize EPSPS variant, probably SEQ ID NO:11 (protein, Zea mays) AGAEEIVLQPIKEISGTVKLPGSKSLSNRILLLAALSEGTTVVDNLLNSEDVHYMLGALRTLGLSVEADKAAKRAVVVGCGGKFPVEDSKEEVQLFLGNAGIAMRSLTAAVTAAGGNATYVLDGVSRMRERPIGDLVVGLKQLGADVDCFLGTDCPPVRVNGIGGLPGGKVKLSGSISSQYLSALLMAAPLALGDVEIEIIDKLISIPYVEMTLRLMERFGVKAEHSDSWDRFYIKGGQKYKSPKNAYVEGDASSASYFLAGAAITGGTVTVEGCGTTSLQGDVKFAEVLEMMGARVTWTETSVTVTGPPREPFGRKHLKAIDVNMNKMPDVAMTLAVVALFADGPTAIRDVASWRVKETERMVAIRTELTKLGASVEEGPDYCIITPPEKLNVTAIDTYDDHRMAMAFSLAACAEVPVAIRDPGCTRKTFPDYFDVLSTFVKN	0%	none	minor injuries	0	17	38	190	excellent tolerance
